From paper PMC13376213 (Nature Communications, 2026) come the findings set out here.

Ends that are not written are not given here.

This assay addresses USP11 tandem DUSP-UBL domain, tag cleaved (for FP) (human). In words: fluorescence polarisation; saturation or displacement not stated for this experiment; 50 mM phosphate buffer pH 7.4, room temperature. Conditions: both partners purified.

Sequence of USP11 tandem DUSP-UBL domain, tag cleaved (for FP) (human) (chain, as listed by the source): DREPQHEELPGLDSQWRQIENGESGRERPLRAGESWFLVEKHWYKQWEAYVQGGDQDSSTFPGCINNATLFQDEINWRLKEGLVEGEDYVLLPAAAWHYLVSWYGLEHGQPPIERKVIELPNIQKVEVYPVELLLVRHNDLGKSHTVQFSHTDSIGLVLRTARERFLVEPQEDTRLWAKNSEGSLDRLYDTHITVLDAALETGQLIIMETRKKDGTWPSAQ

Regarding SAVTYPDWIGQSYSEV-NH2 (also: N-terminus FITC-labeled or acetylated, not given here which) [ORAI1 peptide used for FP], the dissociation constant (Kd) (commonly a measure of binding affinity in units of concentration) was in the range of 200 to 300 µM.
